# Measurements taken from patent publication US10400230B2, “Protease variants and polynucleotides encoding same” (NOVOZYMES A/S, priority 2014, dated 2019).
# Substitutions are numbered along the chain they refer to. Numbers in names are those of the source. Where “and” joins values, the source holds several entries; their conditions need not be identical. Equal entries are not always repeated.
# B1: S27K, I150N, S171N, S173P, G174R, S175P, F180Y, Q198, ET297P: TY145 protease (SEQ ID NO 3) variant with these substitutions (protein, listed as Bacillus sp.)
# chain: AVPSTQTPWGIKSIYNDQSITKTTGGKGIKVAVLDTGVYTSHLDLAGSAEQCKDFTQSNPLVDGSCTDRQGHGTHVAGTVLAHGGSNGQGVYGVAPQAKLWAYKVLGDNGSGYSDDIAAAIRHVADEASRTGSKVVINMSLGSSAKDSLNASAVDYAYGKGVLIVAAAGNNGPRPNTIGYPGGLVNAVAVAALENVQENGTYRVADFSSRGNPATAGDYIIQERDIEVSAPGASVESTWYTGGYNTISGTSMATPHVAGLAAKIWSANTSLSHSQLRTELQNRAKVYDIKGGIGAGPGDDYASGFGYPRVK
# B2: S173P, S175P, I178P, F180Y: TY145 protease (SEQ ID NO 3) variant with these substitutions (protein, listed as Bacillus sp.)
# chain: B1 chain with K27S, N150I, N171S, R174G, I178P, E198Q, P297T
# B3: S27K, S171N, S173P, G174R, S175P, F180Y, L184Y, Q198E, T297P: TY145 protease (SEQ ID NO 3) variant with these substitutions (protein, listed as Bacillus sp.)
# chain: B1 chain with N150I, L184Y
# B4: S27K, S173P, G174K, S175P, F180Y, L184Y, Q197K, Q198E, T297P: TY145 protease (SEQ ID NO 3) variant with these substitutions (protein, listed as Bacillus sp.)
# chain: B1 chain with N150I, N171S, R174K, L184Y, Q197K
# B5: S173P, S175P, F180Y, L184D: TY145 protease (SEQ ID NO 3) variant with these substitutions (protein, listed as Bacillus sp.)
# chain: B1 chain with K27S, N150I, N171S, R174G, L184D, E198Q, P297T
# B6: S173P, S175P, F180Y, R224G: TY145 protease (SEQ ID NO 3) variant with these substitutions (protein, listed as Bacillus sp.)
# chain: B1 chain with K27S, N150I, N171S, R174G, E198Q, R224G, P297T
# B7: S173P, S175P, F180Y, L184F: TY145 protease (SEQ ID NO 3) variant with these substitutions (protein, listed as Bacillus sp.)
# chain: B1 chain with K27S, N150I, N171S, R174G, L184F, E198Q, P297T
# B8: S173P, S175P, F180Y, L184Y: TY145 protease (SEQ ID NO 3) variant with these substitutions (protein, listed as Bacillus sp.)
# chain: B1 chain with K27S, N150I, N171S, R174G, L184Y, E198Q, P297T
# B9: S27K, S173P, G174K, S175P, F180Y, L184Y, Q198E, N199K, T297P: TY145 protease (SEQ ID NO 3) variant with these substitutions (protein, listed as Bacillus sp.)
# chain: B1 chain with N150I, N171S, R174K, L184Y, N199K
# B10: S173P, S175P, F180Y, L184W: TY145 protease (SEQ ID NO 3) variant with these substitutions (protein, listed as Bacillus sp.)
# chain: B1 chain with K27S, N150I, N171S, R174G, L184W, E198Q, P297T
# B11: S27K, I121V, S171N, S173P, G174R, S175P, F180Y, L184F, Q198E, T297P: TY145 protease (SEQ ID NO 3) variant with these substitutions (protein, listed as Bacillus sp.)
# chain: B1 chain with I121V, N150I, L184F
# B12: S27K, Q70N, G107N, I121V, E127Q, S173P, S175P, F180Y, L184F, Q198E, T297P: TY145 protease (SEQ ID NO 3) variant with these substitutions (protein, listed as Bacillus sp.)
# chain: B1 chain with Q70N, G107N, I121V, E127Q, N150I, N171S, R174G, L184F
# B13: S173P, S175P, I178F, F180Y: TY145 protease (SEQ ID NO 3) variant with these substitutions (protein, listed as Bacillus sp.)
# chain: B1 chain with K27S, N150I, N171S, R174G, I178F, E198Q, P297T
# B14: S27K, S171N, S173P, G174R, S175P, F180Y, L184F, Q198E, T297P: TY145 protease (SEQ ID NO 3) variant with these substitutions (protein, listed as Bacillus sp.)
# chain: B1 chain with N150I, L184F
# B15: S27K, S171N, S173P, G174R, S175P, F180Y, L184W, Q198E, T297P: TY145 protease (SEQ ID NO 3) variant with these substitutions (protein, listed as Bacillus sp.)
# chain: B1 chain with N150I, L184W
# B16: S27K, K146P, S148R, A151R, S171N, S173P, G174R, S175P, F180Y, Q198E, N199K, T297P: TY145 protease (SEQ ID NO 3) variant with these substitutions (protein, listed as Bacillus sp.)
# chain: B1 chain with K146P, S148R, N150I, A151R, N199K
# B17: S27K, S173P, G174K, S175P, F180Y, L184F, Q198E, N199R, T297P: TY145 protease (SEQ ID NO 3) variant with these substitutions (protein, listed as Bacillus sp.)
# chain: B1 chain with N150I, N171S, R174K, L184F, N199R
# B18: S173P, S175P, F180Y, R224D: TY145 protease (SEQ ID NO 3) variant with these substitutions (protein, listed as Bacillus sp.)
# chain: B1 chain with K27S, N150I, N171S, R174G, E198Q, R224D, P297T
# B19: S27K, S173P, G174K, S175P, F180Y, L184F, Q198E, N199K, T297P: TY145 protease (SEQ ID NO 3) variant with these substitutions (protein, listed as Bacillus sp.)
# chain: B1 chain with N150I, N171S, R174K, L184F, N199K
# B20: S173P, S175P, N176Y, F180Y: TY145 protease (SEQ ID NO 3) variant with these substitutions (protein, listed as Bacillus sp.)
# chain: B1 chain with K27S, N150I, N171S, R174G, N176Y, E198Q, P297T
# B21: S173P, S175P, I178Y, F180Y: TY145 protease (SEQ ID NO 3) variant with these substitutions (protein, listed as Bacillus sp.)
# chain: B1 chain with K27S, N150I, N171S, R174G, I178Y, E198Q, P297T
# B22: S27K, S171N, S173P, G174R, S175P, F180Y, Q198E, N199K, R224G, T297P: TY145 protease (SEQ ID NO 3) variant with these substitutions (protein, listed as Bacillus sp.)
# chain: B1 chain with N150I, N199K, R224G
# Experiment: Determination of binding constants of inhibitor (NNIC) in Model B detergent, Suc-AAPF-pNA read-out
# Type: biochemical
# Details: Ki of variant with the mutation relative to variant without the mutation, <1.0 beneficial
# Experimental: Purified protease variants are pre-diluted to approximately 0.2 mg/ml in dilution buffer. 40 μl diluted protease is then mixed with 40 μl inhibitor solution (Z-Gly-Ala-NHCH(CH2C6H4pOH)C(OH)(SO3Na)—H, wherein Z is benzyloxycarbonyl) or 40 μl 4-FPBA solution in the well of a 96 well microtiter plate (Nunc F 96-MTP). […] After 10 min mixing of protease and inhibitor at room temperature, 30 μl of the mixture is transferred to a microtiter plate (Nunc U96 PP 0.5 ml) with 270 μl Model B detergent in the wells resulting in inhibitor concentrations of 0-30 μM and 4-FPBA concentrations of 0-6000 μM. Protease, inhibitor and detergent is mixed for 1 hour using magnetic bars for 1 hour at room temperature to reach equilibrium. Then 20 μl is transferred to a microtiter plate (Nunc F 96-MTP). 100 μl substrate solution is added and after 5 sec mixing absorbance at 405 nm is measured every 20 sec for 5 min on a SpectraMax Plus reader. Slope from linear regression of initial increase in absorbance at 405 nm is used for calculation of apparent binding constants.
# It is assumed that protease and inhibitor react according to the equation: E+I ? EI
# Where E is the protease, I is the inhibitor and EI is the protease-inhibitor complex. […] The concentration of enzyme-inhibitor in the detergent solution is then given by:
# where Etot is the total protease concentration ([Etot]=[E]+[EI]), Itot is the total inhibitor concentration ([Itot]=[I]+[EI]), and Ki is the equilibrium binding constant for the reaction. The measured slopes V are given by:
# where V0 is the slope without inhibitor added. To calculate apparent binding constant Ki least square fitting of measured slopes at various inhibitor concentrations to this equation is performed with Ki and V0 as variables.
# The Ki for the parent protease and for each variant was calculated as described above
# Having the Ki for each variant, it is possible to calculate the effect of a single mutation, if data are available for at least two variants that differ only by that mutation. In this case, the relative Ki for the mutation is calculated:
# [formula] A lower Ki is desirable, as a satisfactory inhibition can be obtained at a lower inhibitor concentration, so beneficial mutations have a relative Ki<1.0 The following table show such relative Kimutation. Each row show: • a mutation (column 1: “Mutation”) • a protease variant (relative to SEQ ID NO: 2) that comprise the mutation from column 1 (column 2: “Variant with the mutation”) • another protease variant (relative to SEQ ID NO: 2), that differs from the one in column 2 only by not having the mutation in column 1 (column 3: “Variant without the mutation”) • Relative Kimutation for the mutation in column 1, in the context of the variant in column 3, measured in Model B detergent (column 4: “inhibitor binding in Model B”) • Relative Kimutation for the mutation in column 1, in the context of the variant in column 3, measured in Tris buffer at pH 8 (column 5: “inhibitor binding in Tris buffer pH 8”)
# Ki were calculated as shown in Example 3. The Improvement Factor (IF) or Relative
row,"Inhibitor-binding relative Kimutation, inhibitor binding in Model B",Molecule
1,0.24,B1
2,0.51,B2
3,0.18,B3
4,0.32,B4
5,0.37,B5
6,0.47,B6
7,0.31 and 0.27,B7
8,0.24,B8
9,0.21,B9
10,0.50,B10
11,0.30,B11
12,0.37,B12
13,0.50 and 0.49,B13
14,0.18,B14
15,0.57,B15
16,0.75,B16
17,0.22,B17
18,0.36,B18
19,0.36,B19
20,0.81,B20
21,0.53,B21
22,0.74,B22
